In the supplement of paper PMC7877785:
± gives the uncertainty stated by the source.

Assay: self-splicing fitness, log relative to wild type (ln ratio); higher = more splicing; Tetrahymena group I intron in knt gene, E. coli kanamycin selection, DiMSum; sequences stand for … in CUCUCU…GGAGGGAAAAGUUAUCAGGCAUGCACCUGGUAGCUAGUCUUUAAACCAAUAGAUUGCAUCGGUUUAAAAGGCAAGACCGUCAAAUUGCGGGAAAGGGGUCAACAGCCGUUCAGUACCAAGUCUCAGGGGAAACUUUGAGAUGGCCUUGCAAAGGGUAUGGUAAUAAGCUGACGGACAUGGUCCUAACCACGCAGCCAAGUCCUAAGUCAACAGAUCUUCUGUUGAUAUGGAUGCAGUUCACAGACUAAAUGUCGGUCGGGGAAGAUGUAUUCUUCUCAUAAGAUAUAGUCGGACCUCUCCUUAAUGGGAGCUAGCGGAUGAAGUGAUGCAACACUGGAGCCGCUGGGAACUAAUUUGUAUGCGAAAGUAUAUUGAUUAGUUUUGGAGUACUCGUGGUCG
Procedure, shortened: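 The eight P1ex-region nucleotides of an intron in the knt kanamycin-resistance gene on pET-22b(+) were all randomised and the library put into E. coli BL21(DE3). Six replicate transformations were grown overnight at 37°C or 30°C on LB agar with or without 25 μg/mL kanamycin, together with 100 μg/mL carbenicillin, 50 μM IPTG and 0.2% rhamnose. Colonies were pooled and amplicon-sequenced on an Illumina HiSeq 2500. Fitness from DiMSum is the error-weighted combination of wild-type-normalised replicate fold changes, kanamycin over none.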

Row | Sequence | self-splicing fitness (ln) (30 °C) | self-splicing fitness (ln) (37 °C)
1 | UUCUAGCAAUAUUACGUAUC | -3.32 ± 0.27 | -2.05 ± 0.22
2 | UUCUAGCAAUAUUACGUCCA | -2.13 ± 0.19 | -0.134 ± 0.17
3 | UUCUAGCAAUAUUACGUCUA | -3.64 ± 0.26 | -2.2 ± 0.17
4 | UUCUAGCAAUAUUACGUUGG | -2.65 ± 0.24 | 
5 | UUGAAGCAAUAUUACGAACA | 0.602 ± 0.15 | -0.488 ± 0.23
6 | UUGAAGCAAUAUUACGAAUC | -3.58 ± 0.37 | -2.12 ± 0.32
7 | UUGAAGCAAUAUUACGACAG | 0.483 ± 0.091 | 0.232 ± 0.11
8 | UUGAAGCAAUAUUACGACCA | -0.132 ± 0.12 | 0.61 ± 0.15
9 | UUGAAGCAAUAUUACGACUC | -1.26 ± 0.079 | -0.526 ± 0.11
10 | UUGAAGCAAUAUUACGACUU | -1.37 ± 0.14 | 0.101 ± 0.17
11 | UUGAAGCAAUAUUACGAGUA | -1.83 ± 0.077 | -0.59 ± 0.085
12 | UUGAAGCAAUAUUACGAUCU | -1.3 ± 0.13 | -0.67 ± 0.14
13 | UUGAAGCAAUAUUACGCACG | -0.255 ± 0.15 | -0.521 ± 0.15
14 | UUGAAGCAAUAUUACGCACU | -0.156 ± 0.091 | 0.362 ± 0.1
15 | UUGAAGCAAUAUUACGCCGG | -0.0467 ± 0.11 | 0.0153 ± 0.15
16 | UUGAAGCAAUAUUACGCCGU | -1.33 ± 0.15 | -0.893 ± 0.18
17 | UUGAAGCAAUAUUACGCUAC |  | -1.75 ± 0.37
18 | UUGAAGCAAUAUUACGCUUG | -1.02 ± 0.064 | -0.679 ± 0.087
19 | UUGAAGCAAUAUUACGGAAA | -0.265 ± 0.1 | -0.0838 ± 0.14
20 | UUGAAGCAAUAUUACGGAGG | -0.866 ± 0.11 | -0.64 ± 0.14
21 | UUGAAGCAAUAUUACGGAUA | -0.345 ± 0.08 | -0.413 ± 0.1
22 | UUGAAGCAAUAUUACGGCUU | -3.03 ± 0.26 | -2.71 ± 0.3
23 | UUGAAGCAAUAUUACGGGAG | -1.2 ± 0.1 | -0.884 ± 0.12
24 | UUGAAGCAAUAUUACGGGCG | -0.128 ± 0.061 | 0.407 ± 0.084
25 | UUGAAGCAAUAUUACGGGGC | -3.3 ± 0.2 | -2.74 ± 0.3
26 | UUGAAGCAAUAUUACGGUUC | -3.01 ± 0.2 | -2.08 ± 0.27

Row | Sequence | self-splicing fitness (ln) (30 °C) | self-splicing fitness (ln) (37 °C)
27 | UUGAAGCAAUAUUACGUAUC |  | -1.93 ± 0.42
28 | UUGAAGCAAUAUUACGUGGA | -2.33 ± 0.11 | -1.6 ± 0.14
29 | UUGAAGCAAUAUUACGUGGG | -2.69 ± 0.099 | -1.35 ± 0.1
30 | UUGAAGCAAUAUUACGUUAA | -1.47 ± 0.075 | -0.311 ± 0.11
31 | UUGAAGCAAUAUUACGUUAC |  | -2.51 ± 0.23
32 | UUGCAGCAAUAUUACGAGGU | -3.94 ± 0.33 | -2.65 ± 0.44
33 | UUGCAGCAAUAUUACGAUUC | -3.53 ± 0.38 | -1.71 ± 0.19
34 | UUGCAGCAAUAUUACGCCAU | -2.8 ± 0.11 | -2.49 ± 0.16
35 | UUGCAGCAAUAUUACGCCCU | 0.32 ± 0.46 | 
36 | UUGCAGCAAUAUUACGCGUG | -3.13 ± 0.14 | -2.7 ± 0.17
37 | UUGCAGCAAUAUUACGCGUU | -2.41 ± 0.21 | -1.94 ± 0.18
38 | UUGCAGCAAUAUUACGCUGG | -3.51 ± 0.32 | 
39 | UUGCAGCAAUAUUACGCUGU | -2.71 ± 0.35 | -1.23 ± 0.32
40 | UUGCAGCAAUAUUACGGCCA | -0.118 ± 0.16 | 0.347 ± 0.19
41 | UUGCAGCAAUAUUACGGGAA | -1.51 ± 0.12 | 0.101 ± 0.11
42 | UUGCAGCAAUAUUACGGGCG | -0.91 ± 0.11 | -0.511 ± 0.11
43 | UUGCAGCAAUAUUACGGGUA | -1.76 ± 0.097 | -0.893 ± 0.087
44 | UUGCAGCAAUAUUACGGUAA | -0.988 ± 0.099 | -0.0317 ± 0.093
45 | UUGCAGCAAUAUUACGGUCC | -4.25 ± 0.39 | -2.69 ± 0.26
46 | UUGCAGCAAUAUUACGGUUA | 0.353 ± 0.082 | 0.0359 ± 0.075
47 | UUGCAGCAAUAUUACGUACC | -3.54 ± 0.47 | -2.55 ± 0.33
48 | UUGCAGCAAUAUUACGUAGG | -0.924 ± 0.086 | -0.486 ± 0.11
49 | UUGCAGCAAUAUUACGUCAA | -1.48 ± 0.1 | -0.523 ± 0.11
50 | UUGCAGCAAUAUUACGUCAG | -0.419 ± 0.11 | 0.42 ± 0.14
51 | UUGCAGCAAUAUUACGUCCC |  | -1.44 ± 0.37
52 | UUGCAGCAAUAUUACGUUCA | -0.896 ± 0.12 | 0.241 ± 0.12

Row | Sequence | self-splicing fitness (ln) (30 °C) | self-splicing fitness (ln) (37 °C)
53 | UUGGAGCAAUAUUACGACGG | 0.664 ± 0.22 | -0.775 ± 0.29
54 | UUGGAGCAAUAUUACGAUAG | -2.56 ± 0.37 | 
55 | UUGGAGCAAUAUUACGCCGG |  | -1.08 ± 0.34
56 | UUGGAGCAAUAUUACGCGGU | -2.83 ± 0.26 | -2.14 ± 0.38
57 | UUGGAGCAAUAUUACGGCAG | -1.6 ± 0.17 | -1.01 ± 0.22
58 | UUGGAGCAAUAUUACGGGAU |  | -2.77 ± 0.4
59 | UUGGAGCAAUAUUACGUAUC | -2.95 ± 0.2 | 
60 | UUGGAGCAAUAUUACGUAUU | -4.53 ± 0.39 | -1.7 ± 0.22
61 | UUGGAGCAAUAUUACGUCUU |  | -2.09 ± 0.5
62 | UUGGAGCAAUAUUACGUGUU | -2.58 ± 0.2 | -2.79 ± 0.33
63 | UUGGAGCAAUAUUACGUUGG | -1.5 ± 0.27 | -2.92 ± 0.28
64 | UUGUAGCAAUAUUACGAAAA | -1.86 ± 0.17 | -0.986 ± 0.19
65 | UUGUAGCAAUAUUACGAAAU | -3.24 ± 0.46 | -2.15 ± 0.4
66 | UUGUAGCAAUAUUACGAACU | -2.24 ± 0.11 | 0.102 ± 0.1
67 | UUGUAGCAAUAUUACGAUCC |  | -0.641 ± 0.37
68 | UUGUAGCAAUAUUACGAUUU | -3.15 ± 0.25 | -1.91 ± 0.24
69 | UUGUAGCAAUAUUACGCAUC | -3.41 ± 0.34 | -3.19 ± 0.43
70 | UUGUAGCAAUAUUACGCCAA | -1.22 ± 0.13 | -0.297 ± 0.13
71 | UUGUAGCAAUAUUACGCCUG | 0.32 ± 0.14 | 0.399 ± 0.15
72 | UUGUAGCAAUAUUACGCGGG | -3 ± 0.25 | -2.32 ± 0.16
73 | UUGUAGCAAUAUUACGGACA | -1.61 ± 0.31 | -0.454 ± 0.39
74 | UUGUAGCAAUAUUACGGCCG | -0.356 ± 0.17 | -0.462 ± 0.22
75 | UUGUAGCAAUAUUACGGUCU | -2.53 ± 0.21 | -1.53 ± 0.17
76 | UUGUAGCAAUAUUACGGUUG | -2.38 ± 0.12 | -0.9 ± 0.12
77 | UUGUAGCAAUAUUACGUACA | -1.51 ± 0.2 | -0.822 ± 0.17
78 | UUGUAGCAAUAUUACGUCUG | -0.639 ± 0.067 | 0.19 ± 0.086

Row | Sequence | self-splicing fitness (ln) (30 °C) | self-splicing fitness (ln) (37 °C)
79 | UUGUAGCAAUAUUACGUUUU | -2.52 ± 0.24 | -1.98 ± 0.17
80 | UUUAAGCAAUAUUACGAACU | -2.51 ± 0.23 | -1.98 ± 0.23
81 | UUUAAGCAAUAUUACGACAC | -2.23 ± 0.44 | 
82 | UUUAAGCAAUAUUACGACCU | -1.72 ± 0.21 | -1.3 ± 0.18
83 | UUUAAGCAAUAUUACGAGCC | -1.83 ± 0.36 | 
84 | UUUAAGCAAUAUUACGAGUC |  | -2.65 ± 0.48
85 | UUUAAGCAAUAUUACGAUAU | -2.91 ± 0.14 | -1.52 ± 0.14
86 | UUUAAGCAAUAUUACGAUUU | -1.92 ± 0.16 | -0.754 ± 0.13
87 | UUUAAGCAAUAUUACGCAAU | -2.5 ± 0.24 | -1.55 ± 0.23
88 | UUUAAGCAAUAUUACGCACC | -2.05 ± 0.21 | -0.66 ± 0.22
89 | UUUAAGCAAUAUUACGCAUG | -1.07 ± 0.089 | -0.408 ± 0.099
90 | UUUAAGCAAUAUUACGCGUC | -1.9 ± 0.18 | -1.77 ± 0.25
91 | UUUAAGCAAUAUUACGCUCC | -2.1 ± 0.22 | -0.172 ± 0.29
92 | UUUAAGCAAUAUUACGCUUA |  | -3.03 ± 0.33
93 | UUUAAGCAAUAUUACGGAAG | -2.97 ± 0.26 | -1.37 ± 0.3
94 | UUUAAGCAAUAUUACGGAGC | -1.94 ± 0.25 | -1.43 ± 0.47
95 | UUUAAGCAAUAUUACGGAUC | -1.33 ± 0.43 | 
96 | UUUAAGCAAUAUUACGGUGC | -3.88 ± 0.46 | -2.01 ± 0.47
97 | UUUAAGCAAUAUUACGUAUG | -1.44 ± 0.13 | -0.482 ± 0.16
98 | UUUAAGCAAUAUUACGUCGG | -0.492 ± 0.079 | -0.762 ± 0.089
99 | UUUAAGCAAUAUUACGUGUC | -3.99 ± 0.33 | -2.65 ± 0.25
100 | UUUCAGCAAUAUUACGAGGC | -2.12 ± 0.22 | 
101 | UUUCAGCAAUAUUACGAGGG | -3.94 ± 0.25 | -1.02 ± 0.13
